The supplement of paper PMC10567573
± gives the standard deviation.

Experiment: protein stability index of a GFP-peptide fusion (GPS, HEK-293T) (PSI 1-6); higher = more stable
[1] = treatment: DMSO, c terminus: a fixed tail appended
[2] = treatment: MLN4924 1 uM, 8 h, c terminus: a fixed tail appended
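Note: 24-mer peptide tiles fused after GFP, lentivirally expressed, FACS-sorted into six equal bins by GFP/DsRed ratio, decoded by Illumina sequencing, PSI is the read-weighted mean bin number.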

**Q.** What does the source list for TQESTFQELCEGLLEESDGEGEPG [NOP53]?
**A.** protein stability index [1]: 5.59 ± 0.22; protein stability index [2]: 5.51 ± 0.22

**Q.** For QNYISQKEDASEFQILKYLFQIDV [MIA2], which protein stability index [1] is on record?
**A.** The protein stability index was 2.28 ± 0.21.

**Q.** What about the protein stability index [2] of the same sequence?
**A.** Its protein stability index is 2.25 ± 0.45.

**Q.** For SNVQEVRCPVTVCGDVHGQFHDLM [PPP2CA], which protein stability index [1] is on record?
**A.** The protein stability index was 3.54 ± 0.41.

**Q.** What about the protein stability index [2] of the same sequence?
**A.** The protein stability index was 3.49 ± 0.31.

**Q.** For ILAVSFAPLIQPCHSESGKSRLVQ [PCMTD2], which protein stability index [1] is on record?
**A.** Its protein stability index is 2.23 ± 0.59.

**Q.** And the protein stability index [2]?
**A.** Its protein stability index is 1.93 ± 0.25.

**Q.** Which protein stability index [1] does the source give for LKTSEVTQHLPRECLPENLGGYVK [PTPN9] here?
**A.** The protein stability index was 3.97 ± 0.38.

**Q.** What about the protein stability index [2] of the same sequence?
**A.** The protein stability index was 3.73 ± 0.56.

**Q.** Which protein stability index [1] does the source give for QGASWELQSLRPHDEDIKTTNVKS [ZNF396] here?
**A.** Its protein stability index is 5.14 ± 0.097.

**Q.** What about the protein stability index [2] of the same sequence?
**A.** Its protein stability index is 5.19 ± 0.21.

**Q.** Which protein stability index (treatment: DMSO, c terminus: native) does the source give for GSACSLLCCCGRDPSEEHSLLVN [MCOLN1] here?
**A.** Its protein stability index is 2.3 ± 0.39.

**Q.** And the protein stability index (treatment: MLN4924 1 uM, 8 h, c terminus: native)?
**A.** Its protein stability index is 2.27 ± 0.38.

**Q.** With GKYNAMVLELLGPSLEDLFDLCDR [CSNK1G3] as the sequence, how does the protein stability index [1] read?
**A.** The protein stability index was 2.92 ± 0.28.

**Q.** And the protein stability index [2]?
**A.** Its protein stability index is 2.18 ± 0.28.

**Q.** Which protein stability index [1] does the source give for PNIAMTSGTVQPKQDAFANFANFS [CLINT1] here?
**A.** Its protein stability index is 3.61 ± 0.34.

**Q.** And the protein stability index [2]?
**A.** The protein stability index was 3.66 ± 0.14.

**Q.** Which protein stability index [1] does the source give for TRDGFKLVMASLYHIYVALEEEIE [HMOX1] here?
**A.** Its protein stability index is 2.15 ± 0.52.

**Q.** What about the protein stability index [2] of the same sequence?
**A.** The protein stability index was 2.56 ± 0.51.

**Q.** What does the source list for LAKDFIRRLLVKDPKRRMTIAQSL [DAPK3]?
**A.** protein stability index [1]: 2.96 ± 0.3; protein stability index [2]: 2.7 ± 0.051

**Q.** With KDESCYDNAEAAFSDDEEDLNSKG [INTS3] as the sequence, how does the protein stability index [1] read?
**A.** The protein stability index was 5.6 ± 0.39.

**Q.** What about the protein stability index [2] of the same sequence?
**A.** Its protein stability index is 5.5 ± 0.18.

**Q.** Which results are given for KRRKSMSGASPKESTNPEKAHETL [CDC25A]?
**A.** protein stability index [1]: 5.24 ± 0.25; protein stability index [2]: 5.03 ± 0.23

**Q.** With YQELLGLSFEQMTDAHVWNKSVTL [NLN] as the sequence, how does the protein stability index [1] read?
**A.** The protein stability index was 2.37 ± 0.093.

**Q.** What about the protein stability index [2] of the same sequence?
**A.** Its protein stability index is 2.3 ± 0.28.

**Q.** For AIAKQALKKPIKGKQAPRKKAQGK [KMT5A], which protein stability index [2] is on record?
**A.** The protein stability index was 4.02 ± 0.17.

**Q.** What does the source list for QKHTEVETVDLVLKLKNKLLQADR [DENND6A]?
**A.** protein stability index [1]: 3.49 ± 0.33; protein stability index [2]: 3.45 ± 0.32

**Q.** With SSSDLVMRARDSVYHIECFRCSVC [ISL2] as the sequence, how does the protein stability index [1] read?
**A.** Its protein stability index is 2.5 ± 0.33.

**Q.** What about the protein stability index [2] of the same sequence?
**A.** Its protein stability index is 2.72 ± 0.51.

**Q.** With EDVARPTQRLWDFTQSGPIVSRAT [GALNT9] as the sequence, how does the protein stability index [1] read?
**A.** The protein stability index was 3.99 ± 0.056.

**Q.** And the protein stability index [2]?
**A.** Its protein stability index is 3.87 ± 0.33.

**Q.** With LMSLQNQLKESKSKIDALSSEKLN [CEP70] as the sequence, how does the protein stability index [1] read?
**A.** The protein stability index was 4.13 ± 0.15.

**Q.** What about the protein stability index [2] of the same sequence?
**A.** Its protein stability index is 4.05 ± 0.19.

**Q.** With LCDVVLVVGAKKIYAHRVILSACS [KLHL20] as the sequence, how does the protein stability index [1] read?
**A.** The protein stability index was 2.7 ± 0.29.

**Q.** What about the protein stability index [2] of the same sequence?
**A.** Its protein stability index is 2.74 ± 0.39.

**Q.** For ERWLQKQGKYSGVGLLDHMVSIYL [RNF180], which protein stability index [1] is on record?
**A.** Its protein stability index is 2.3 ± 0.39.

**Q.** What about the protein stability index [2] of the same sequence?
**A.** The protein stability index was 2.59 ± 0.28.

**Q.** Which results are given for NDPEKNFLTTAIRPHGIFGPRDPQ [NSDHL]?
**A.** protein stability index [1]: 4.24 ± 0.3; protein stability index [2]: 4.24 ± 0.29

**Q.** With PGVAYPAFLGPDEAFALPDSLLVV [SPSB4] as the sequence, how does the protein stability index [1] read?
**A.** The protein stability index was 2.76 ± 0.49.

**Q.** What about the protein stability index [2] of the same sequence?
**A.** Its protein stability index is 2.21 ± 0.13.

**Q.** Which results are given for CTHCSKSFRQRAGLIMHQVTHFRG [ZNF449]?
**A.** protein stability index [1]: 2.46 ± 0.53; protein stability index [2]: 3.02 ± 0.52

**Q.** Which results are given for LKKKQKRQAELLEKRLQEIEELER [SRPK2]?
**A.** protein stability index [1]: 4.2 ± 0.29; protein stability index [2]: 4.24 ± 0.49

**Q.** For AHIALETLEGHQRAIMAHMTVEEI [FLOT1], which protein stability index [1] is on record?
**A.** Its protein stability index is 3.25 ± 0.29.

**Q.** What about the protein stability index [2] of the same sequence?
**A.** The protein stability index was 3.51 ± 0.32.

**Q.** With SSSSSSSSSSSSSSSSGPGHGEPD [TMEM40] as the sequence, how does the protein stability index [1] read?
**A.** Its protein stability index is 5.49 ± 0.36.

**Q.** What about the protein stability index [2] of the same sequence?
**A.** Its protein stability index is 5.4 ± 0.35.

**Q.** What does the source list for LRRRLEELQQELSLKDQERVAEVS [LRRC45]?
**A.** protein stability index [1]: 4.07 ± 0.42; protein stability index [2]: 3.89 ± 0.32

**Q.** Which protein stability index [1] does the source give for SGERWLERYEIDSLIGKGSFGQVV [DYRK1B] here?
**A.** Its protein stability index is 2.97 ± 0.2.

**Q.** And the protein stability index [2]?
**A.** Its protein stability index is 3.1 ± 0.25.

**Q.** Which protein stability index [1] does the source give for KPSVDTEGPALVEIDRSVENTLLN [MIA2] here?
**A.** The protein stability index was 4.99 ± 0.23.

**Q.** And the protein stability index [2]?
**A.** The protein stability index was 5.07 ± 0.26.

**Q.** Which protein stability index [1] does the source give for VLAGAAEEGFMTAELAGVIKRLWK [GNAI1] here?
**A.** Its protein stability index is 2.38 ± 0.34.

**Q.** What about the protein stability index [2] of the same sequence?
**A.** The protein stability index was 2.45 ± 0.057.

**Q.** For NEARHNFGIVEIDGMLYILGGEDG [GAN], which protein stability index [1] is on record?
**A.** The protein stability index was 2.63 ± 0.37.

**Q.** What about the protein stability index [2] of the same sequence?
**A.** Its protein stability index is 2.72 ± 0.4.

**Q.** What does the source list for EDLLLPGACPGADEAGGGAEGDSW [WEE1]?
**A.** protein stability index [1]: 5.53 ± 0.12; protein stability index [2]: 5.58 ± 0.22

**Q.** With VPVVTPTASTAPPVPATAPSPAPA [SNAP91] as the sequence, how does the protein stability index [1] read?
**A.** Its protein stability index is 4.98 ± 0.17.

**Q.** What about the protein stability index [2] of the same sequence?
**A.** Its protein stability index is 5.05 ± 0.11.

**Q.** With EEDLVLTCEDDEDEELGGSSRVPV [ZBTB22] as the sequence, how does the protein stability index [1] read?
**A.** Its protein stability index is 5.67 ± 0.24.

**Q.** And the protein stability index [2]?
**A.** The protein stability index was 5.6 ± 0.21.

**Q.** Which results are given for VTAGCGFGKDFRKGLLKKGACYGD [PPTC7]?
**A.** protein stability index [1]: 2.79 ± 0.56; protein stability index [2]: 2.65 ± 0.11

**Q.** Which results are given for ENIEVKEGGLYFERRPVAQSTDGA [SPSB2]?
**A.** protein stability index [1]: 4.55 ± 0.27; protein stability index [2]: 4.66 ± 0.18

**Q.** With FGELRLGKNLYTNEYVAIKLEPIK [CSNK1G1] as the sequence, how does the protein stability index [1] read?
**A.** The protein stability index was 3.02 ± 0.94.

**Q.** And the protein stability index [2]?
**A.** Its protein stability index is 2.04 ± 0.47.

**Q.** What does the source list for EVDPVRRAVRDRNLLRDDRVLQNL [CCND2]?
**A.** protein stability index [1]: 4.1 ± 0.2; protein stability index [2]: 4.01 ± 0.27

**Q.** Which results are given for HEKTVDIYGHVTLMRAQRNYMVQT [PTPRD]?
**A.** protein stability index [1]: 2.32 ± 0.4; protein stability index [2]: 2.18 ± 0.43

**Q.** Which results are given for ESKDYLSLYLLLVSCPKSEVRAKF [SPOPL]?
**A.** protein stability index [1]: 2.92 ± 0.38; protein stability index [2]: 2.82 ± 0.63

**Q.** Which protein stability index [1] does the source give for MSDSTWMSADPHLASSLSPSQDER [NOL4L] here?
**A.** Its protein stability index is 5.31 ± 0.19.

**Q.** What about the protein stability index [2] of the same sequence?
**A.** The protein stability index was 5.18 ± 0.28.

**Q.** Which protein stability index [1] does the source give for KHSVLLSASRKSAEQLRIELNAEK [WEE1] here?
**A.** Its protein stability index is 3.92 ± 0.32.

**Q.** And the protein stability index [2]?
**A.** The protein stability index was 4.16 ± 0.21.

**Q.** With WVFHHYVSTFLSGVMLTWPDGLMY [TMEM120A] as the sequence, how does the protein stability index [1] read?
**A.** Its protein stability index is 3.14 ± 0.17.

**Q.** And the protein stability index [2]?
**A.** The protein stability index was 3.11 ± 0.24.

**Q.** With GRVSKQASQPVKKQQENATSCSLE [WDR41] as the sequence, how does the protein stability index [1] read?
**A.** The protein stability index was 5.22 ± 0.1.

**Q.** And the protein stability index [2]?
**A.** The protein stability index was 5.29 ± 0.16.
